Measured values taken from the supplement of paper PMC7125110.
± gives the standard error. For some assays here: Fewer inactive variants are shown than the library holds.

B1: glmS ribozyme (parent)
chain: AUAAAAGCGCCAGAACUACAGAAAUGUAGUUGACGAGGAGGAGGUUUAUCGAAUUUUCGGCGGAUGCCUCCAAA

Tests used:
Settings in all cases: with glucosamine-6-phosphate
[1] = variants of: B1; assay: kcat; higher = faster cleavage; RNA array
Procedure, shortened: (§1)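 Weighted Michaelis–Menten fits across concentrations supplied kcat and KM, based on kobs from one- or two-exponential decay fits to normalised per-tile medians. The data came from barcoded ribozyme variants transcribed in situ by E. coli RNA polymerase on sequenced MiSeq chips and tracked at 37 °C by a hybridised Cy3 probe. Glucosamine-6-phosphate (40 μM to 10 mM) in HEPES/KCl/Mg(OAc)2 buffer was flowed in.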

[2] = variants of: B1; assay: self-cleavage kobs at 40 uM GlcN6P; higher = faster cleavage; RNA array
Procedure, shortened: as §1

[3] = variants of: B1; assay: self-cleavage kobs at 640 uM GlcN6P; higher = faster cleavage; RNA array
Procedure, shortened: as §1

[4] = variants of: B1; assay: KM; higher = weaker cofactor use; RNA array
Procedure, shortened: as §1

[5] = variants of: B1; assay: self-cleavage kobs at 160 uM GlcN6P; higher = faster cleavage; RNA array
Procedure, shortened: as §1

[6] = variants of: B1; assay: self-cleavage kobs at 2500 uM GlcN6P; higher = faster cleavage; RNA array
Procedure, shortened: as §1

[7] = variants of: B1; assay: self-cleavage kobs at 10000 uM GlcN6P; higher = faster cleavage; RNA array
Procedure, shortened: as §1

Variant	kcat [1]	self-cleavage kobs at 40 uM GlcN6P [2]	self-cleavage kobs at 640 uM GlcN6P [3]	KM [4]	self-cleavage kobs at 160 uM GlcN6P [5]	self-cleavage kobs at 2500 uM GlcN6P [6]	self-cleavage kobs at 10000 uM GlcN6P [7]
AUAAAGGCGUCAGAACUACAGAAAUGUAGUUGACGAGGAGGAGGUUUAUCGAAUUAUCGGCGGAUGCCUCCAAA [A6G C10U U56A]	< 1e-05 s⁻¹	< 1e-05 s⁻¹	< 1e-05 s⁻¹				
AUAAAGGCGCCAGAACUACAGAAAUGUAGUUGACGAGGAGGAGGUUUAUCGAACUUUCGGCGGAUGCCUCCAAA [A6G U54C]	0.000547 ± 9.2e-05 s⁻¹		0.0001 ± 1.3e-05 s⁻¹	2590 ± 710 µM	4.65e-05 ± 1.2e-05 s⁻¹	0.000351 ± 7.7e-05 s⁻¹	0.000427 ± 5.3e-05 s⁻¹
AUAAAGGCGCCAGAACUACAGAAAUGUAUUUGACGAGGAGGAGGUUUAUCGAAUUUUCGGCGGAUGCCUCCAAA [A6G G29U]	8.41e-05 ± 9.3e-06 s⁻¹			3850 ± 1100 µM		3.54e-05 ± 1e-05 s⁻¹	6.03e-05 ± 9e-06 s⁻¹
AUAAAGGCGCCAGAACUACAGAAAUGUAGUUGACGAGGAGGAGGUUUAUCGAAUUGUCGGCGGAUGCCUCCAAA [A6G U56G]	0.000188 ± 3.3e-05 s⁻¹		7.97e-05 ± 1.2e-05 s⁻¹	1150 ± 540 µM		0.000107 ± 1.5e-05 s⁻¹	0.000191 ± 2.3e-05 s⁻¹
AUAAAGGCGCCAGAACUACAGAAAUGUAGUUGACGAGGAGGAGGUUUAUCGAAUUAUCGGCGGAUGCCUCCAAA [A6G U56A]	0.000242 ± 1.2e-05 s⁻¹		4.69e-05 ± 1.4e-05 s⁻¹	2780 ± 290 µM		0.000114 ± 2.4e-05 s⁻¹	0.00019 ± 3.6e-05 s⁻¹
AUAAAUGCGCCAGACCUACAGAAAUGUAGUUGACGAGGAGGAGGUUUAUCGAAUUUUCGGCGGAUGCCUCCAAA [A6U A15C]	7.81e-05 ± 1.6e-05 s⁻¹	< 1e-05 s⁻¹		4250 ± 2000 µM		2.58e-05 ± 7.8e-06 s⁻¹	5.56e-05 ± 8.2e-06 s⁻¹
AUAAAUGCGCCUGAACUACAGAAAUGUAGUUGACGAGGAGGAGGUUUAUCGAAUUUUCGGCGGAUGCCUCCAAA [A6U A12U]	0.000909 ± 9.6e-05 s⁻¹		0.000158 ± 2.3e-05 s⁻¹	2840 ± 510 µM	6.32e-05 ± 1.6e-05 s⁻¹	0.000426 ± 4.8e-05 s⁻¹	0.000715 ± 9.1e-05 s⁻¹
AUAAAUGCGCCCGAACUACAGAAAUGUAGUUGACGAGGAGGAGGUUUAUCGAAUUUUCGGCGGAUGCCUCCAAA [A6U A12C]	0.000271 ± 9.3e-05 s⁻¹					0.000111 ± 3.2e-05 s⁻¹	0.000168 ± 2.9e-05 s⁻¹
AUAAAGGCGCCAGAACUACAGAAAUGUAGUUGACGAGGAGGAGGUUUAUCGAAUAUUCGGCGGAUGCCUCCAAA [A6G U55A]	0.00056 ± 6.3e-05 s⁻¹		0.000143 ± 1.7e-05 s⁻¹	1630 ± 370 µM	5.94e-05 ± 1.2e-05 s⁻¹	0.000388 ± 4.1e-05 s⁻¹	0.000463 ± 4.3e-05 s⁻¹
AUAAAUGCGCCAGAUCUACAGAAAUGUAGUUGACGAGGAGGAGGUUUAUCGAAUUUUCGGCGUAUACCUCCAAA [A6U A15U G63U G66A]	1.95e-05 ± 6.5e-06 s⁻¹						
AUAAAGGCGCCAGAAUUACAGAAAUGUAGUUGACGAGGAGGAGGUUUAUCGAAUUUUCGGCGGAUGCCUCCAAA [A6G C16U]	0.000459 ± 3.2e-05 s⁻¹		6.74e-05 ± 1e-05 s⁻¹	3450 ± 450 µM	2.44e-05 ± 1.1e-05 s⁻¹	0.000208 ± 2.7e-05 s⁻¹	0.000336 ± 3.2e-05 s⁻¹
AUAAAGGCGCCAGAACUACAGAAAUGUAGUUGACGAGGAGGAGGUUUAUCGAAUUUUCGGCGGAUGCCGCCAAA [A6G U69G]	1.01e-05 ± 1.6e-06 s⁻¹	< 1e-05 s⁻¹					
AUAAAGGCGCCAGAACUACAGAAAUGUAGUUGACGAGGAGGAGGUUUAUCGAAUUUUCGGCGGAGGCCUCCAAA [A6G U65G]	0.000323 ± 2.1e-05 s⁻¹		4.35e-05 ± 1e-05 s⁻¹	3580 ± 500 µM		0.000141 ± 1.6e-05 s⁻¹	0.000234 ± 2e-05 s⁻¹
AUAAAGGCGCAAGAACUACAGAAAUGUAGUUGACGAGGAGGAGGUUUAUCGAAUUUUCGGCGGAUGCCUCCAAA [A6G C11A]	2.52e-05 ± 7.7e-06 s⁻¹						
AUAAAGGCGCUAGAACUACAGAAAUGUAGUUGACGAGGAGGAGGUUUAUCGAAUUUUCGGCGGAUGCCUCCAAA [A6G C11U]	2.61e-05 ± 3.3e-06 s⁻¹	< 1e-05 s⁻¹			< 1e-05 s⁻¹	2.57e-05 ± 1.2e-05 s⁻¹	2.38e-05 ± 7.5e-06 s⁻¹
AUAAAGGCGCCAGAACUACAGAAAUGUAGUUGACGAGGAGGAGGUUUAUCGAAUAUUCGGCGGAUGCGUCCAAA [A6G U55A C68G]	2.16e-05 ± 2.8e-06 s⁻¹						
AUAAAUGCGCCAGAACUACAGAAAUGUAGUUGACGAGGAGGAGGUUUAUCGAAUUUUCGGCGGAUGCCUCCAAA [A6U]	0.000447 ± 1.4e-05 s⁻¹		8.33e-05 ± 1.6e-06 s⁻¹	2740 ± 150 µM	2.53e-05 ± 2.3e-06 s⁻¹	0.00022 ± 4e-06 s⁻¹	0.000346 ± 6.3e-06 s⁻¹
AUAAAGGCGCCAGAACUACAGAAAUGUAGUUAACGAGGAGGAGGUUUAUCGAAUUUUCGGCGGAUGCCUCCAAA [A6G G32A]	< 1e-05 s⁻¹	< 1e-05 s⁻¹					
AUAAAGGCGCCAGAACUACAGAAAUGUAGUUGACGAGGAGGAGGUUUAUCGAAUUUUCGGCGGGUGCCUCCAAA [A6G A64G]	1.81e-05 ± 5.8e-06 s⁻¹	< 1e-05 s⁻¹					
